The values that follow come from article PMC8284803.

Where two headings read alike, the source gives them in different places.

Common to all, as to assay: EMSA
Data set [1] has as its target T1, hMLH1 (hMutLγ subunit);hMLH3 (hMutLγ subunit) (Homo sapiens;Homo sapiens, UniProt P40692;Q9UHC1 1-756;1-1453, |).
Data set [2] concerns the target hMSH4 (hMutSγ subunit);hMSH5 (hMutSγ subunit) (Homo sapiens;Homo sapiens, UniProt O15457;O43196 1-936;1-834, |).
Data set [3] addresses T1, hMLH1 (hMutLγ subunit);hMLH3 (hMutLγ …). This is another data set of the same source.
Data set [4] has the same target. The source holds these as a separate data set.

B1: HJ (Holliday junction) (structured_DNA)
DNA 1: CTAGTATAGAGCCGGCGCGCCATGTCTAGATAGCGTTAGGTCTGCCGAATAGTACTACTCGGATCCCGAGCGAACCACGC
DNA 2: GCGTGGTTCGCTCGGGATCCGAGTAGTACTATTCGGCAGAGGATTCGAATAGGCCTAATCGAATTCCGCCATCGATGCAC
DNA 3: GTGCATCGATGGCGGAATTCGATTAGGCCTATTCGAATCCAGACGCGAGTAGATCTTCACGGTACCCGCGGTTACCCGTG
DNA 4: CACGGGTAACCGCGGGTACCGTGAAGATCTACTCGCGTCTCCTAACGCTATCTAGACATGGCGCGCCGGCTCTATACTAG
Take B1: in data set [1], the Kd is around 38 nM. The binding result in data set [2] is listed as “binds”.

B2: 80mer with 10 nt gap (mixed)
DNA 1: B1 DNA 1
DNA 2: GCGTGGTTCGCTCGGGATCCGAGTAGTACTATTCG
DNA 3: CGCTATCTAGACATGGCGCGCCGGCTCTATACTAG
Turning to B2, the binding result in data set [3] was “no binding”.

B3: 80mer with 5 nt gap (mixed)
DNA 1: B1 DNA 1
DNA 2: GCGTGGTTCGCTCGGGATCCGAGTAGTACTATTCGG
DNA 3: CTAACGCTATCTAGACATGGCGCGCCGGCTCTATACTAG
For the molecule B3, the binding result in data set [3] was “no binding”.

B4: 80mer with 40 nt gap (mixed)
DNA 1: B1 DNA 1
DNA 2: GCGTGGTTCGCTCGGGATCC
DNA 3: GCGCGCCGGCTCTATACTAG
Regarding B4, in data set [4], the binding result is “binds”.

B5: gHJ (gapped HJ) (structured_DNA)
DNA 1: B1 DNA 1
DNA 2: B1 DNA 2
DNA 3: B1 DNA 3
DNA 4: CACGGGTAACCGCGGGTACCGTGAAGATCTACTCGCGTCTCCTAA
DNA 5: CCGGCTCTATACTAG
B5 came in with a Kd in data set [1] of around 16 nM.

B6: 80mer with 20 nt gap (mixed)
DNA 1: B1 DNA 1
DNA 2: GCGTGGTTCGCTCGGGATCCGAGTAGTACT
DNA 3: TCTAGACATGGCGCGCCGGCTCTATACTAG
For the molecule B6, the binding result in data set [3] was “binds”.
